Among the data in patent publication US20110301073 are activity, binding signal (normalized ELISA) and activity (fold activation) values, retold here.

In data set [1] the test system is TALEN 101231 (NI half repeat) (synthetic (Xanthomonas TALE)). Put plainly: cell_activity. The following applies: paired with 101234.
Data set [2] concerns TALE test backbone, repeat 5 RVD SN (synthetic (Xanthomonas TALE)). The following applies: ELISA. Background: ELISA stands for enzyme-linked immunosorbent assay.
In data set [3] the test system is TALE test backbone, repeat 5 RVD NA (synthetic (Xanthomonas TALE)). The following applies: ELISA.
Data set [4] relates to TALE test backbone, repeat 5 RVD LA (synthetic (Xanthomonas TALE)). The following applies: ELISA.
Data set [5] deals with TALE test backbone, repeat 5 RVD HN (synthetic (Xanthomonas TALE)). The following applies: ELISA.
Data set [6] deals with TALE test backbone, repeat 5 RVD RA (synthetic (Xanthomonas TALE)). To be noted: ELISA.
The subject of data set [7] is TALE test backbone, repeat 5 RVD NS (synthetic (Xanthomonas TALE)). To be noted: ELISA.
Data set [8] has as its system TALE test backbone, repeat 5 RVD VG (synthetic (Xanthomonas TALE)). The following applies: ELISA.
Data set [9] concerns TALE test backbone, repeat 5 RVD DK (synthetic (Xanthomonas TALE)). To be noted: ELISA.
Data set [10] has as its system TALE test backbone, repeat 5 RVD TP (synthetic (Xanthomonas TALE)). The following applies: ELISA.
Data set [11] has as its system TALE test backbone, repeat 5 RVD IG (synthetic (Xanthomonas TALE)). The following applies: ELISA.
Data set [12] has as its system TALE test backbone, repeat 5 RVD KS (synthetic (Xanthomonas TALE)). To be noted: ELISA.
For data set [13], the system named is TALE test backbone, repeat 5 RVD ND (synthetic (Xanthomonas TALE)). To be noted: ELISA.
Data set [14] has as its system TALE test backbone, repeat 5 RVD GG (synthetic (Xanthomonas TALE)). The following applies: ELISA.
Data set [15] relates to TALE test backbone, repeat 5 RVD RG (synthetic (Xanthomonas TALE)). To be noted: ELISA.
Data set [16] relates to TALE test backbone, repeat 5 RVD KD (synthetic (Xanthomonas TALE)). The following applies: ELISA.
In data set [17] the test system is TALE test backbone, repeat 5 RVD AT (synthetic (Xanthomonas TALE)). The following applies: ELISA.
The subject of data set [18] is TALE test backbone, repeat 5 RVD AE (synthetic (Xanthomonas TALE)). To be noted: ELISA.
The subject of data set [19] is TALE test backbone, repeat 5 RVD NG (Xanthomonas sp. (engineered)). The following applies: RVD NG.
Data set [20] concerns TALE test backbone, repeat 5 RVD HG (synthetic (Xanthomonas TALE)). The following applies: ELISA.
The subject of data set [21] is TALE test backbone, repeat 5 RVD SG (synthetic (Xanthomonas TALE)). To be noted: ELISA.
The subject of data set [22] is TALE test backbone, repeat 5 RVD AD (synthetic (Xanthomonas TALE)). To be noted: ELISA.
The subject of data set [23] is TALE test backbone, repeat 5 RVD NN (Xanthomonas sp. (engineered)). The following applies: RVD NN.
The test system of data set [24] is TALE test backbone, repeat 5 RVD IA (synthetic (Xanthomonas TALE)). To be noted: ELISA.
Data set [25] concerns TALE test backbone, repeat 5 RVD HI (Xanthomonas sp. (engineered)). The following applies: RVD HI.
The subject of data set [26] is TALE test backbone, repeat 5 RVD QA (synthetic (Xanthomonas TALE)). The following applies: ELISA.
The test system of data set [27] is TALE test backbone, repeat 5 RVD YG (synthetic (Xanthomonas TALE)). The following applies: ELISA.
Data set [28] deals with TALE test backbone, repeat 5 RVD NI (Xanthomonas sp. (engineered)). The following applies: RVD NI.
Data set [29] concerns TALE test backbone, repeat 5 RVD IP (synthetic (Xanthomonas TALE)). The following applies: ELISA.
For data set [30], the system named is TALE test backbone, repeat 5 RVD HD, standard framework (SEQ 333) (Xanthomonas sp. (engineered)). The following applies: RVD HD.
Data set [31] concerns TALE test backbone, repeat 5 RVD PW (Xanthomonas sp. (engineered)). The following applies: RVD PW; 0.00 on all four bases.
In data set [32] the test system is TALE test backbone, repeat 5 RVD AN (synthetic (Xanthomonas TALE)). The following applies: ELISA.
Data set [33] concerns TALE test backbone, repeat 5 RVD KT (synthetic (Xanthomonas TALE)). The following applies: ELISA.
Data set [34] concerns TALE test backbone, repeat 5 RVD KG (synthetic (Xanthomonas TALE)). To be noted: ELISA.
Data set [35] relates to TALE test backbone, repeat 5 RVD AA (synthetic (Xanthomonas TALE)). To be noted: ELISA.
Data set [36] has as its system TALE test backbone, repeat 5 RVD QG (synthetic (Xanthomonas TALE)). To be noted: ELISA.
Data set [37] deals with TALE test backbone, repeat 5 RVD DH (synthetic (Xanthomonas TALE)). To be noted: ELISA.
Data set [38] deals with TALE test backbone, repeat 5 RVD RI (synthetic (Xanthomonas TALE)). The following applies: ELISA.
The test system of data set [39] is TALE test backbone, repeat 5 RVD HA (synthetic (Xanthomonas TALE)). The following applies: ELISA.
Data set [40] relates to TALE test backbone, repeat 5 RVD TA (synthetic (Xanthomonas TALE)). The following applies: ELISA.
For data set [41], the system named is TALE test backbone, repeat 5 RVD KI (Xanthomonas sp. (engineered)). To be noted: RVD KI.
Data set [42] has as its system TALEN 101139 (synthetic (Xanthomonas TALE)). Put plainly: cell_activity. To be noted: paired with 101141.
For data set [43], the system named is TALE13 C-2 FokI (Xanthomonas axonopodis). In words: cleavage_in_vitro. The following applies: two sites, 12 bp spacer.
Data set [44] has as its system TALE13 C+5 FokI (Xanthomonas axonopodis). In words: cleavage_in_vitro. To be noted: two sites, 12 bp spacer.
The test system of data set [45] is TALE13 C+17 FokI (Xanthomonas axonopodis). Put plainly: cleavage_in_vitro. The following applies: two sites, 12 bp spacer.
Data set [46] deals with TALE13 C+11 FokI (Xanthomonas axonopodis). Put plainly: cleavage_in_vitro. To be noted: two sites, 12 bp spacer.
For data set [47], the system named is TALEN 101151 (synthetic (Xanthomonas TALE)). In words: cell_activity. To be noted: paired with 101233.
Data set [48] has as its system R0-VP16 (no tandem repeats) (Xanthomonas sp. (engineered)). Put plainly: cell_activity. The following applies: no tandem repeats.
The test system of data set [49] is nR23570S-dNC (17.5 repeats without N- and C-caps) (Xanthomonas sp. (engineered)). Put plainly: cell_activity. The following applies: mock 1.48; caps deleted.
In data set [50] the test system is TALEN 101236 (HD half repeat) (synthetic (Xanthomonas TALE)). Put plainly: cell_activity. To be noted: paired with 101238; 2.5% with 101237.
For data set [51], the system named is TALEN 101233 (NI half repeat) (synthetic (Xanthomonas TALE)). In words: cell_activity. The following applies: paired with 101151.
Data set [52] concerns TALEN 101234 (HD half repeat) (synthetic (Xanthomonas TALE)). In words: cell_activity. To be noted: paired with 101231.
The subject of data set [53] is TALEN 101141 (HD half repeat) (synthetic (Xanthomonas TALE)). Put plainly: cell_activity. The following applies: paired with 101139.
Data set [54] deals with TALEN 101126 (synthetic (Xanthomonas TALE)). Put plainly: cell_activity. To be noted: paired with 101124.
The test system of data set [55] is TALEN 101238 (HD half repeat) (synthetic (Xanthomonas TALE)). Put plainly: cell_activity. The following applies: paired with 101236; 8.1% with 101235.
Data set [56] deals with TALEN 101237 (NK half repeat) (synthetic (Xanthomonas TALE)). In words: cell_activity. To be noted: paired with 101236.
Data set [57] has as its system TALEN 101230 (HD half repeat) (synthetic (Xanthomonas TALE)). Put plainly: cell_activity. The following applies: paired with 101156.
For data set [58], the system named is TALEN 101124 (synthetic (Xanthomonas TALE)). Put plainly: cell_activity. The following applies: paired with 101126.
Data set [59] concerns TALEN 101156 (synthetic (Xanthomonas TALE)). Put plainly: cell_activity. The following applies: paired with 101230.
Data set [60] deals with TALEN 101235 (HD half repeat) (synthetic (Xanthomonas TALE)). In words: cell_activity. The following applies: paired with 101238.

Turning to “GGCACTCCGCACCCCCA (double strand) [101231 site]”, in data set [1], the activity was 10 % NHEJ.

Regarding “TTGACAATCCT (double strand) [CAA target]”, the binding signal (normalized ELISA) was determined as 0.43 in [2]; 0.59 in data set [3]; 0.02 in [4]; 0.5 in data set [5]; 0.73 in data set [6]; 0.51 in data set [7]. The binding signal (normalized ELISA) in [8] worked out at 0.05; in data set [9] it was 0; in [10] it was 0.16; in data set [11], 0.04; in data set [12] it was 0.95; in data set [13], 0.06. Moreover, the binding signal (normalized ELISA) stood at 0.49 in data set [14]; 0.32 in data set [15]; 0.06 in data set [16]; 1.29 in [17]; 0 in [18]; 0.48 in [19]. The binding signal (normalized ELISA) in [20] was found to be 0.38; in data set [21] it was 0.36; in data set [22] it was 0.02; in data set [23], 0.47; in data set [24] it was 0.15; in data set [25], 0.67. Further, the binding signal (normalized ELISA) in data set [26] is 0.2; in data set [27] it was 0.12; in data set [28], 0.6; in data set [29], 0.04; in [30], 0.15; in [31], 0. For the same sequence, the binding signal (normalized ELISA) in data set [32] came out at 0.51; in [33] it was 1; in [34], 0.47; in [35], 0.34; in data set [36], 0.21; in data set [37], 0.01. For the same sequence, the binding signal (normalized ELISA) in [38] came to 0.65; in data set [39], 0.46; in [40] it was 0.15; in data set [41] it was 0.75.

In data set [42], “GGGCTCTCCCATGCAT (double strand) [101139 site]” displayed an activity of 6.7 % NHEJ.

For “TATAAATACCTTCT (double strand) [TALE13 target]”, the activity came to 1.1 % cleavage in [43], 99.3 % cleavage in data set [44], 97.8 % cleavage in data set [45] and 98.5 % cleavage in data set [46].

Consider “CCGCACCCCCAGCT (double strand) [101151 site]”, for which the activity in data set [47] is 13.3 % NHEJ.

On to “GGAGCCATCTGGCCGGGT (double strand) [NT-L target (NTF3 promoter)]”, for which the activity (fold activation) worked out at 1 in [48] and 1.96 in [49].

“ACGCCGTGGAAAGGCC (double strand) [101236 site]” returned an activity in data set [50] of 9.2 % NHEJ.

Regarding “GCTCCTGGCCCTTGCA (double strand) [101233 site]”, the activity in [51] came out at 13.3 % NHEJ.

In the case of “ACCGCTGTGCTCCTGGC (double strand) [101234 site]”, the activity in data set [52] worked out at 10 % NHEJ.

In turn, “TCCTAGAAGGGCAGGC (double strand) [101141 site]” returned an activity in data set [53] of 6.7 % NHEJ.

As to “GACCCTGCCTGCT (double strand) [101126 site]”, the activity in [54] is 2.2 % NHEJ.

Take “CGGGGATGATCTAC (double strand) [101238 site]”: the activity in [55] is 9.2 % NHEJ.

With “CGGGGATGATCTACGG (double strand) [101237 site]”, in data set [56], the activity was found to be 2.5 % NHEJ.

In turn, “GGCACTCCGCACCCC (double strand) [101230 site]” returned an activity in [57] of 4.9 % NHEJ.

“GCAGCTGCCCAGACCT (double strand) [101124 site]” registered an activity in [58] of 2.2 % NHEJ.

Turning to “TACCGCTGTGCTCCT (double strand) [101156 site]”, the activity in data set [59] amounted to 4.9 % NHEJ.

“ACGCCGTGGAAAGGC (double strand) [101235 site]” yielded an activity in [60] of 8.1 % NHEJ.
